In PMC6707742:

Target: coagulation factor IXa (FIXa) (human, UniProt P00740;P00740 47-191;227-461)
Assay: SPR

coagulation factor IXa (FIXa), sequence (P00740 47-191, chain 1 of 2): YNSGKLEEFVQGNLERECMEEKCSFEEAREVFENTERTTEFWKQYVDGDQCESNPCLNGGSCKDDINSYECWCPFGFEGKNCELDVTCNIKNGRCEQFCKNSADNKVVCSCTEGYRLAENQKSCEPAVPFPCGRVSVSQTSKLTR
coagulation factor IXa (FIXa), sequence (P00740 227-461, chain 2 of 2): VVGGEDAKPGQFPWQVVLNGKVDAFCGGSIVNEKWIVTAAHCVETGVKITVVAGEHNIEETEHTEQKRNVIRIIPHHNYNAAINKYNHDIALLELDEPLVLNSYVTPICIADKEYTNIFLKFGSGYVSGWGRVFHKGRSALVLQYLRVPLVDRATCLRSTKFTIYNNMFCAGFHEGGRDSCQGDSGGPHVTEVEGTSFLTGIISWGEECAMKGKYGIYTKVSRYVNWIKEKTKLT

B1: RB006 (XNA)
RNA: GUGGACUAUACCGCGUAAUGCUGCCUCCAC
modifications: 5' 40 kDa branched mPEG; uppercase 2'-F, lowercase 2'-OMe in GUGGAcuAuAccGcGuAAuGcU(G)CcuCCAC; (G) unmodified; 3' inverted dT
B1: binds.
